In publication PMC10561363:

Target: glutathione S-transferase (GST) fused to the C-terminus of SERT
Assay: GST pull-down, immunoblot densitometry
Settings: whole-cell lysates of transfected HEK-293 cells; n = 3; parent: est. 3.1; read off a plot

Q: For “YFP-tagged human MAD2, wild type (from UniProt Q13257) R133A”, which response is on record?
A: 2.1 a.u.
